Experimental data: US8486893B2, “Treatment of conditions involving demyelination” (Biogen Idec MA Inc., priority 2004, dated 2013)

Assays:
A2B5+ oligodendrocytes = test: Differentiation of A2B5+ oligodendrocytes treated with Sp35-Fc (O4 staining); assay type: cell-based, rat; conditions: increasing concentrations, versus control-Fc, FIG. 8
Method: Enriched populations of oligodendrocytes were grown from female Long Evans P2 rats as described by Conn, Meth. Neurosci. 2:1-4 (Academic Press; 1990) with modifications as follows. Briefly, the forebrain was dissected and placed in Hank's buffered salt solution (HBSS; Invitrogen). The tissue was cut into 1-mm fragments and was incubated at 37° C. for 15 min in 0.01% trypsin and 10 μg/ml DNase. Dissociated cells were plated on poly-L-lysine-coated T75 tissue culture flasks and were grown at 37° C. for 10 d in DMEM medium with 20% fetal calf serum (Invitrogen). Oligodendrocyte precursors (A2B5+) were collected by shaking the flask overnight at 200 rpm at 37° C., resulting in a 95% pure population. […] These differentiation states are readily apparent from changes in morphology: A2B5^+ cells are bipolar in shape, O4^+ premyelinating oligodendrocytes have longer and more branched processes and MBP^+ mature oligodendrocytes contain myelin sheet structures between processes.
A2B5^+ oligodendrocytes, prepared as described in Example 1, were treated with increasing concentrations of Sp35-Fc or control-Fc for 3 days (Sp35-Fc was prepared as described in Example 2). […] After 48 h (72 h for RNAi), cultures were stained with antibody to O4, and the number of total O4+ and mature O4+ oligodendrocytes was quantified. Samples were analyzed in duplicate. […]

mature oligodendrocytes = test: Survival and MBP expression of mature oligodendrocyte cultures treated with Sp35-Fc; assay type: cell-based, rat; conditions: 10 μg/ml for 5 days
Method: Mature oligodendrocytes have a half-life in vitro of about 48 to 72 hours, with cells typically undergoing apoptosis after 72 hours. […] MBP expression was monitored as a marker for mature ologodendrocytes.

RhoA-GTP = RhoA-GTP levels in oligodendrocyte lysates by western blotting; assay type: cell-based, rat; conditions: FIG. 9A
Text: A strong candidate signaling pathway that is implicated in the control of oligodendrocyte differentiation is the Rho family of GTPases. Rho GTPases regulate cellular morphology, and reduced RhoA-GTP amounts are required for oligodendrocyte differentiation. See Liang, X, et al., J. Neurosci. 24:7140-7149 (2004). To determine whether Sp35 signals through the RhoA pathway, RhoAGTP levels in cell lysates of oligodendrocytes treated with Sp35-Fc were compared with levels in the corresponding control via western blotting.

cuprizone-treated mice = test: Cuprizone demyelination model, stereotactic injection into corpus callosum; assay type: in vivo; conditions: injected into corpus callosum at 2, 2.5 and 3 weeks of cuprizone feeding
Text: Adult wild-type C57Bl/6 male mice were fed cuprizone (0.2% milled with ground mouse chow by weight) for 6 weeks to induce demyelination within the corpus callosum. Sp35-Fc was stereotactically injected into the demyelinating corpus callosum at 2, 2.5, and 3 weeks of cuprizone feeding. Control mice were stereotactically injected at the same intervals with sterilized media containing no Sp35-Fc. After 6 weeks of cuprizone feeding, the mice were returned to a normal diet for 2, 4 and 6 weeks (ground mouse chow only) to allow remyelination.
The cuprizone-treated mice were anesthetized with ketamine (80 mg/kg body weight) and xylazine (10 mg/kg body weight) and positioned in an immobilization apparatus designed for stereotactic surgery (David Kopf Instruments). The scalp was opened and the sterile compounds injected (1 μM in […] of HBSS) unilaterally into the acutely demyelinated corpus callosum of the wild-type recipient mice with a […] Hamilton syringe using stereotactic coordinates of 0.7 mm posterior and 0.3 mm lateral to bregma at a depth of 1.7 mm (Messier et al., Pharmacol. Biochem. Behav. 63(2): 313-18 (1999)). Additionally, control recipient mice were stereotactically injected with HBSS containing no compounds. The opening in the skull was filled with Gelfoam, and the area was swabbed with penicillin and streptomycin (Gibco) and the wound was sutured. […]

spinal cord injury rats = test: Spinal cord injury (dorsal hemisection T6/T7), intrathecal mini-osmotic pump; assay type: in vivo, rat
Method: Spinal cord injury was induced in adult female Long Evans rats (190-210 g; Charles River). A dorsal hemisection was performed at T6/T7, completely interrupting the main dorsomedial and the minor dorsolateral corticospinal tract (CST) components. The cord was sterotaxically transected at a depth of 1.8 mm from the surface using a microscalpel. […] Postoperative care comprised analgesia (Buprenorphine/Buprenex, Reckitt Benckiset Healthcare Ltd., 0.05 mg/kg subcutaneously) every 8-12 hours for 3 days and antibiotic treatment (ampicillin, Bristol Myers Squibb, 100 mg/kg subcutaneously twice daily) for 7 days after surgery. Bladders were expressed manually twice a day for the duration of the study (4 weeks) or until return of function. On completion of the study, rats were anesthetized and trans-cardially perfused with heparinized saline followed by 4% paraformaldehyde (PFA). The spinal cords were removed, embedded in paraffin, and 10 μm sections were cut from for histological analysis.
To quantify apoptotic cell death after SCI, animals were euthanized 3 or 7 days after SCI and stained using anti-activated-Caspase-3 antibody (Cell Signaling Technologies) and TUNEL staining (Promega). The sections were also stained with anti-NeuN antibody (Chemicon) and anti-CC1 antibody (Calbiochem) to identify neurons and oligodendrocytes, respectively.

Caspase-3 = Caspase-3 activation in differentiated PC12 cells after NGF withdrawal (Caspase 3/7 Glo); assay type: cell-based
Method: (§1) PC12 cells (Neuroscreen) were differentiated in RPMI-1640 medium supplemented with 5% fetal bovine serum, 10% horse serum, 2 mM glutamine, 100 U/ml penicillin and […] streptomycin containing 200 ng/ml NGF for 7 days. For experiments, the culture media was replaced with NGF-free culture media containing Sp35-Fc, human IgG as a negative control (0.1-10 μM), or zVAD as a positive control (0.1 μM). 18 hours after NGF withdrawal, activated Caspase-3 was quantified using the Caspase 3/7 Glo kit (Promega) according to the manufacturer's instructions. 42 hours after NGF withdrawal, apoptotic cell death was quantified using a cell death detection ELISA kit (Roche) according to the manufacturer's instructions.

[1] = test system: differentiated PC12 cells; test: Apoptotic cell death in differentiated PC12 cells after NGF withdrawal (cell death ELISA / TUNEL); assay type: cell-based
Method: as §1

B1: Sp35-Fc: extra-cellular portion of human Sp35 (residues 1-532) fused to the hinge and Fc region of human IgG1 (protein)
chain: TGCPPRCECSAQDRAVLCHRKRFVAVPEGIPTETRLLDLGKNRIKTLNQDEFASFPHLEELELNENIVSAVEPGAFNNLFNLRTLGLRSNRLKLIPLGVFTGLSNLTKLDISENKIVILLDYMFQDLYNLKSLEVGDNDLVYISHRAFSGLNSLEQLTLEKCNLTSIPTEALSHLHGLIVLRLRHLNINAIRDYSFKRLYRLKVLEISHWPYLDTMTPNCLYGLNLTSLSITHCNLTAVPYLAVRHLVYLRFLNLSYNPISTIEGSMLHELLRLQEIQLVGGQLAVVEPYAFRGLNYLRVLNVSGNQLTTLEESVFHSVGNLETLILDSNPLACDCRLLWVFRRRWRLNFNRQQPTCATPEFVQGKEFKDFPDVLLPNYFTCRRARIRDRKAQQVFVDEGHTVQFVCRADGDPPPAILWLSPRKHLVSAKSNGRLTVFPDGTLEVRYAQVQDNGTYLCIAANAGGNDSMPAHLHVRSYSPDWPHQPNKTFAFISNQPGE
modifications: left off: a dimerising Fc or GST
notes: extra-cellular portion of human Sp35 (residues 1-532) fused to the hinge and Fc region of human IgG1
With B1 the “differentiation of A2B5+ cells into O4+ cells” value (A2B5+ oligodendrocytes) was “promoted differentiation of A2B5^+ cells into O4^+ cells in a concentration dependent manner”, the “differentiation of A2B5+ cells into O4+ cells” value (A2B5+ oligodendrocytes; listed as LINGO-1-Fc) was “Dose-dependent differentiation” and the “increase in MBP protein expression (cell staining and Western blot)” value (mature oligodendrocytes; compared to control-Fc treated cells) was “approximately 3 fold”. The “survival rate for mature oligodendrocytes (cell viability staining)” value (mature oligodendrocytes; versus control-Fc) was “significantly increased survival rate”, the “RhoA-GTP amount versus control” value (RhoA-GTP) was “threefold reduction” and the “axon myelination by IHC (anti-MBP antibody or luxol fast blue)” value (cuprizone-treated mice) was “increased”. For the same molecule, the “mature oligodendrocyte survival (CC1 antibody staining)” value (cuprizone-treated mice; FIG. 12) was “increased mature oligodendrocyte survival”, the “number of activated-Caspase-3-positive neurons and oligodendrocytes versus controls” value (spinal cord injury rats; 3 days after SCI, 0.25 μl/h of 25 μM intrathecal) was “significantly smaller” and the “neuron and oligodendrocyte survival around the lesion site (anti-βIII-tubulin, anti-O4)” value (spinal cord injury rats; four weeks after SCI) was “more neurons and oligodendrocytes survived”. The Caspase-3 activation (Caspase-3; 0.1 μM, 18 hours after removal of NGF) was “reduced Caspase-3 activation”, the “dose dependence of effect on Caspase-3 activation” value (Caspase-3; 0.1-10 μM, 18 hours after NGF withdrawal) was “dose-dependent” and the “effect on Caspase-3 activation compared with zVAD (0.1 μM)” value (Caspase-3; 1 or 10 μM, FIG. 14) was “as effective as a neuroprotective dose of the caspase inhibitor zVAD”. For the same molecule, the “cells undergoing apoptosis (TUNEL assay)” value ([1]; 18 hours after NGF withdrawal, FIG. 13 legend) was “fewer cells undergoing apoptosis” and the “cell death (TUNEL ELISA)” value ([1]; 42 hours after withdrawal of NGF, FIG. 13) was “significantly reduced cell death”.
